Earlier results, collected in article PMC4623604, “Discovery of Small Molecules that Inhibit the Disordered Protein, p27^Kip1” (Scientific Reports, 2015).

Biological target: cyclin A (Homo sapiens) (UniProt P20248)
Sequence (P20248 whole entry): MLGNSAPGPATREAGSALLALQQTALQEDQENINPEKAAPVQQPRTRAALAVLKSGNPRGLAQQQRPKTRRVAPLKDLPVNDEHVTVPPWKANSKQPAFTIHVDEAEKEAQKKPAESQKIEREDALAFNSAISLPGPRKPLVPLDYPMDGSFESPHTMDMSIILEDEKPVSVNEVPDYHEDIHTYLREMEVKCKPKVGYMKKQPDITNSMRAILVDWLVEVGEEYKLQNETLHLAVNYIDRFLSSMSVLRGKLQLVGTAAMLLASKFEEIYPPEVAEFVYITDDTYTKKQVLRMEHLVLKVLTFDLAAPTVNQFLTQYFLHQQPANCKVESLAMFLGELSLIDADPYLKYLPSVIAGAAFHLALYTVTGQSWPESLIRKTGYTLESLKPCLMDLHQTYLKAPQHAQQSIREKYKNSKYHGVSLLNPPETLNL

Kd: 42 nM
Substance: p27 D1 (from UniProt P46527)
